Measurements as given in patent US7985567B2, “Host cells and methods for producing 3-methyl-2-buten-1-ol, 3-methyl-3-buten-1-ol, and 3-methyl-butan-1-ol” (The Regents of the University of California, priority 2007, dated 2011).

B1: OYE2: Old yellow enzyme family reductase of S. cerevisiae, gene locus YHR179w (protein, UniProt Q03558 2-400, looked up)
NADPH dehydrogenase 2: PFVKDFKPQALGDTNLFKPIKIGNNELLHRAVIPPLTRMRAQHPGNIPNRDWAVEYYAQRAQRPGTLIITEGTFPSPQSGGYDNAPGIWSEEQIKEWTKIFKAIHENKSFAWVQLWVLGWAAFPDTLARDGLRYDSASDNVYMNAEQEEKAKKANNPQHSITKDEIKQYVKEYVQAAKNSIAAGADGVEIHSANGYLLNQFLDPHSNNRTDEYGGSIENRARFTLEVVDAVVDAIGPEKVGLRLSPYGVFNSMSGGAETGIVAQYAYVLGELERRAKAGKRLAFVHLVEPRVTNPFLTEGEGEYNGGSNKFAYSIWKGPIIRAGNFALHPEVVREEVKDPRTLIGYGRFFISNPDLVDRLEKGLPLNKYDRDTFYKMSAEGYIDYPTYEEALKLGWDKN
B2: OYE3: Old yellow enzyme family reductase of S. cerevisiae, gene locus YPL171c (protein, UniProt P41816 2-400, looked up)
NADPH dehydrogenase 3: PFVKGFEPISLRDTNLFEPIKIGNTQLAHRAVMPPLTRMRATHPGNIPNKEWAAVYYGQRAQRPGTMIITEGTFISPQAGGYDNAPGIWSDEQVAEWKNIFLAIHDCQSFAWVQLWSLGWASFPDVLARDGLRYDCASDRVYMNATLQEKAKDANNLEHSLTKDDIKQYIKDYIHAAKNSIAAGADGVEIHSANGYLLNQFLDPHSNKRTDEYGGTIENRARFTLEVVDALIETIGPERVGLRLSPYGTFNSMSGGAEPGIIAQYSYVLGELEKRAKAGKRLAFVHLVEPRVTDPSLVEGEGEYSEGTNDFAYSIWKGPIIRAGNYALHPEVVREQVKDPRTLIGYGRFFISNPDLVYRLEEGLPLNKYDRSTFYTMSAEGYTDYPTYEEAVDLGWNKN

Tested on: S. cerevisiae BY4741 transformed with pESC expressing a reductase candidate gene
Test: Screening of reductase candidates for reduction of 3-methyl-2-butenol to 3-methyl-butanol
Format: cell-based, Saccharomyces cerevisiae
Details: 3-methyl-2-butenol 1 g/l; relative to controls; FIGS. 4 and 5
Description: To identify enzymes with the capability to catalyze the reduction 3-methyl-2-butenol to 3-methyl-butanol the following assay system was employed. 5 ml of synthetic defined medium lacking leucine with 1.8% galactose and 0.2% glucose was inoculated with an overnight culture of S. cerevisiae BY4741 freshly transformed with a vector (pESC) expressing a reductase candidate gene to achieve a final absorbance of 0.5 at 600 nm (A600). The cultures were grown at 30° C. at 200 r.p.m. After 48 hours, 3-methyl-2-butenol (1 g/l) was added to the culture.
Cultures were sampled for isopentanol production after addition of 3-methyl-2-butenol as described in Example 3.

| Molecule | isopentanol production from 3-methyl-2-butenol by yeast over-expressing the reductase |
| --- | --- |
| B1 | significant increase in isopentanol production |
| B2 | significant increase in isopentanol production |
